# Measured values: paper PMC9618391 (2022)
# B1: wild-type human sodium/iodide symporter (hNIS) [human] / μ1B (AP1M2) expressed from cDNA in COS-7 cells [not stated] (parent complex)
# chain 1: MEAVETGERPTFGAWDYGVFALMLLVSTGIGLWVGLARGGQRSAEDFFTGGRRLAALPVGLSLSASFMSAVQVLGVPSEAYRYGLKFLWMCLGQLLNSVLTALLFMPVFYRLGLTSTYEYLEMRFSRAVRLCGTLQYIVATMLYTGIVIYAPALILNQVTGLDIWASLLSTGIICTFYTAVGGMKAVVWTDVFQVVVMLSGFWVVLARGVMLVGGPRQVLTLAQNHSRINLMDFNPDPRSRYTFWTFVVGGTLVWLSMYGVNQAQVQRYVACRTEKQAKLALLINQVGLFLIVSSAACCGIVMFVFYTDCDPLLLGRISAPDQYMPLLVLDIFEDLPGVPGLFLACAYSGTLSTASTSINAMAAVTVEDLIKPRLRSLAPRKLVIISKGLSLIYGSACLTVAALSSLLGGGVLQGSFTVMGVISGPLLGAFILGMFLPACNTPGVLAGLGAGLALSLWVALGATLYPPSEQTMRVLPSSAARCVALSVNASGLLDPALLPANDSSRAPSSGMDASRPALADSFYAISYLYYGALGTLTTVLCGALISCLTGPTKRSTLAPGLLWWDLARQTASVAPKEEVAILDDNLVKGPEELPTGNKKPPGFLPTNEDRLFFLGQKELEGAGSWTPCVGHDGGRDQQETNL
# chain 2: MSASAVFILDVKGKPLISRNYKGDVAMSKIEHFMPLLVQREEEGALAPLLSHGQVHFLWIKHSNLYLVATTSKNANASLVYSFLYKTIEVFCEYFKELEEESIRDNFVIVYELLDELMDFGFPQTTDSKILQEYITQQSNKLETGKSRVPPTVTNAVSWRSEGIKYKKNEVFIDVIESVNLLVNANGSVLLSEIVGTIKLKVFLSGMPELRLGLNDRVLFELTGRSKNKSVELEDVKFHQCVRLSRFDNDRTISFIPPDGDFELMSYRLSTQVKPLIWIESVIEKFSHSRVEIMVKAKGQFKKQSVANGVEISVPVPSDADSPRFKTSVGSAKYVPERNVVIWSIKSFPGGKEYLMRAHFGLPSVEKEEVEGRPPIGVKFEIPYFTVSGIQVRYMKIIEKSGYQALPWVRYITQSGDYQLRTS
# Variants of: B1
# Test: co-immunoprecipitation with Western blot quantification; COS-7 cells cotransfected with hNIS and μ1B; IP α-μ1B, WB α-hNIS; parent: 100; read off a plot
row,Variant,percent of parent
1,chain 1 L594A,~84 % Relative to hNIS WT
2,chain 1 L583A,~5 % Relative to hNIS WT
3,chain 1 L587A,~100 % Relative to hNIS WT
4,chain 1 Y118A,~61 % Relative to hNIS WT

# Continued, values first:
row,percent of parent,Variant
1,~32 % Relative to hNIS WT,"chain 1 L562A, chain 1 L563A"
2,~83 % Relative to hNIS WT,chain 1 Y120A
3,~60 % Relative to hNIS WT,chain 1 L121A
